B1: LDSEALLTL (peptide)
peptide: LDSEALLTL
B2: HMSGKLTNV (peptide)
peptide: HMSGKLTNV
B3: AILNVDEKNQV (peptide)
peptide: AILNVDEKNQV
B4: TLDRNSLYV (peptide)
peptide: TLDRNSLYV
B5: QLVQRVASV (peptide)
peptide: QLVQRVASV
B6: TLYPGRFDYV (peptide)
peptide: TLYPGRFDYV
B7: YLADTVQKL (peptide)
peptide: YLADTVQKL
B8: KMISAIPTL (peptide)
peptide: KMISAIPTL
B9: SLMEKNQSL (peptide)
peptide: SLMEKNQSL
B10: SLYAGSNNQV (peptide)
peptide: SLYAGSNNQV
B11: QIVELIEKI (peptide)
peptide: QIVELIEKI
B12: VIIKGLEEI (peptide)
peptide: VIIKGLEEI
B13: TLHDQVHLL (peptide)
peptide: TLHDQVHLL
notes: also called ESR1-001
B14: KQMSISTGL (peptide)
peptide: KQMSISTGL
B15: GLAFLPASV (peptide)
peptide: GLAFLPASV
B16: SLNKQIETV (peptide)
peptide: SLNKQIETV
B17: KLLDKPEQFL (peptide)
peptide: KLLDKPEQFL
notes: also called FMN1-001
B18: LLPSIFLMV (peptide)
peptide: LLPSIFLMV
B19: AMFPDTIPRV (peptide)
peptide: AMFPDTIPRV
B20: FVMEGEPPKL (peptide)
peptide: FVMEGEPPKL
B21: AMLASQTEA (peptide)
peptide: AMLASQTEA
B22: IKVTDPQLLEL (peptide)
peptide: IKVTDPQLLEL
B23: RLYGYFHDA (peptide)
peptide: RLYGYFHDA
B24: SLDKDIVAL (peptide)
peptide: SLDKDIVAL
B25: TIGIPFPNV (peptide)
peptide: TIGIPFPNV
B26: ALDTTRHEL (peptide)
peptide: ALDTTRHEL
B27: VLSTRVTNV (peptide)
peptide: VLSTRVTNV
B28: KLMDPGSLPPL (peptide)
peptide: KLMDPGSLPPL
B29: SLSEKSPEV (peptide)
peptide: SLSEKSPEV
B30: AVPPPPSSV (peptide)
peptide: AVPPPPSSV
B31: VLMDEGAVLTL (peptide)
peptide: VLMDEGAVLTL
B32: RVLPGQAVTGV (peptide)
peptide: RVLPGQAVTGV
B33: FLLDKPQDL (peptide)
peptide: FLLDKPQDL
B34: LKVLKADVVL (peptide)
peptide: LKVLKADVVL
B35: VLQQESNFL (peptide)
peptide: VLQQESNFL
B36: SLYALHVKA (peptide)
peptide: SLYALHVKA
B37: GLLENSPHL (peptide)
peptide: GLLENSPHL
B38: ALGDKFLLRV (peptide)
peptide: ALGDKFLLRV
B39: ILAEEPIYI (peptide)
peptide: ILAEEPIYI
B40: TVLEEIGNRV (peptide)
peptide: TVLEEIGNRV
B41: GLTEKTVLV (peptide)
peptide: GLTEKTVLV
B42: LLLESDPKVYSL (peptide)
peptide: LLLESDPKVYSL
B43: KLIGNIHGNEV (peptide)
peptide: KLIGNIHGNEV
B44: VLLGSVVIFA (peptide)
peptide: VLLGSVVIFA

Assays:
[1] = system: CD8+ T cells of healthy HLA-A*02 donors; assay: In vitro immunogenicity: T-cell priming with aAPCs loaded with peptide/MHC and anti-CD28, pMHC multimer readout; type: cell-based, human; settings: in vitro immunogenicity of HLA class I peptides; for donors: percentage of positive donors; for wells: percentage of positive wells
Description: In order to obtain information regarding the immunogenicity of the TUMAPs of the present invention, the inventors performed investigations using an in vitro T-cell priming assay based on repeated stimulations of CD8+ T cells with artificial antigen presenting cells (aAPCs) loaded with peptide/MHC complexes and anti-CD28 antibody.
In order to perform in vitro stimulations by artificial antigen presenting cells loaded with peptide-MHC complex (pMHC) and anti-CD28 antibody, the inventors first isolated CD8+ T cells from fresh HLA-A*02 leukapheresis products via positive selection using CD8 microbeads (Miltenyi Biotec, Bergisch-Gladbach, Germany) of healthy donors obtained from the University clinics Mannheim, Germany, after informed consent. PBMCs and isolated CD8+ lymphocytes were incubated in T-cell medium (TCM) until use consisting of RPMI-Glutamax (Invitrogen, Karlsruhe, Germany) supplemented with 10% heat inactivated human AB serum (PAN-Biotech, Aidenbach, Germany), 100 U/ml Penicillin/100 μg/ml Streptomycin (Cambrex, Cologne, Germany), 1 mM sodium pyruvate (CC Pro, Oberdorla, Germany), 20 μg/ml Gentamycin (Cambrex). 2.5 ng/ml IL-7 (PromoCell, Heidelberg, Germany) and 10 U/ml IL-2 (Novartis Pharma, Nürnberg, Germany) were also added to the TCM at this step. Generation of pMHC/anti-CD28 coated beads, T-cell stimulations and readout was performed in a highly defined in vitro system using four different pMHC molecules per stimulation condition and 8 different pMHC molecules per readout condition.
The purified co-stimulatory mouse IgG2a anti human CD28 Ab 9.3 (Jung et al., 1987) was chemically biotinylated using Sulfo-N-hydroxysuccinimidobiotin as recommended by the manufacturer (Perbio, Bonn, Germany). Beads used were 5.6 μm diameter streptavidin coated polystyrene particles (Bangs Laboratories, Illinois, USA).
pMHC used for positive and negative control stimulations were A*0201/MLA-001 (peptide […] (SEQ ID NO. 289) from modified Melan-A/MART-1) and A*0201/DDX5-001 ([…] from DDX5, SEQ ID NO. 290), respectively.
800.000 beads/200 μl were coated in 96-well plates in the presence of 4×12.5 ng different biotin-pMHC, washed and 600 ng biotin anti-CD28 were added subsequently in a volume of 200 μl. Stimulations were initiated in 96-well plates by co-incubating […] CD8+ T cells with 2×10^5 washed coated beads in 200 μl TCM supplemented with 5 ng/ml IL-12 (PromoCell) for 3 days at 37° C. Half of the medium was then exchanged by fresh TCM supplemented with 80 U/ml IL-2 and incubating was continued for 4 days at 37° C. This stimulation cycle was performed for a total of three times. For the pMHC multimer readout using 8 different pMHC molecules per condition, a two-dimensional combinatorial coding approach was used as previously described (Andersen et al., 2012) with minor modifications encompassing coupling to 5 different fluorochromes. Finally, multimeric analyses were performed by staining the cells with Live/dead near IR dye (Invitrogen, Karlsruhe, Germany), CD8-FITC antibody clone SK1 (BD, Heidelberg, Germany) and fluorescent pMHC multimers. For analysis, a BD LSRII SORP cytometer equipped with appropriate lasers and filters was used. Peptide specific cells were calculated as percentage of total CD8+ cells. Evaluation of multimeric analysis was done using the FlowJo software (Tree Star, Oreg., USA). In vitro priming of specific multimer+ CD8+ lymphocytes was detected by comparing to negative control stimulations.
Exemplary flow cytometry results after TUMAP-specific multimer staining for 15 peptides of the invention are shown in FIGS. 3 and 6 together with corresponding negative controls.

HLA-A*02:01 = target: T1, HLA-A*02:01 (human); assay: UV ligand-exchange ELISA (anti-b2m); ++ = exchange yield >=20%
T1 construct: MHC monomers captured on streptavidin plates; the UV-sensitive peptide is cleaved and exchanged with the test peptide; also called peptide-receptive MHC molecules; MHC class I
Description: Candidate peptides for T cell based therapies according to the present invention were further tested for their MHC binding capacity (affinity). The individual peptide-MHC complexes were produced by UV-ligand exchange, where a UV-sensitive peptide is cleaved upon UV-irradiation, and exchanged with the peptide of interest as analyzed. Only peptide candidates that can effectively bind and stabilize the peptide-receptive MHC molecules prevent dissociation of the MHC complexes. To determine the yield of the exchange reaction, an ELISA was performed based on the detection of the light chain (β2m) of stabilized MHC complexes. The assay was performed as generally described in Rodenko et al. (Rodenko et al., 2006).
96 well MAXISorp plates (NUNC) were coated over night with 2 ug/ml streptavidin in PBS at room temperature, washed 4× and blocked for 1 h at 37° C. in 2% BSA containing blocking buffer. Refolded HLA-A*02:01/MLA-001 monomers served as standards, covering the range of 15-500 ng/ml. Peptide-MHC monomers of the UV-exchange reaction were diluted 100 fold in blocking buffer. Samples were incubated for 1 h at 37° C., washed four times, incubated with 2 ug/ml HRP conjugated anti-β2m for 1 h at 37° C., washed again and detected with TMB solution that is stopped with […]. Absorption was measured at 450 nm. Candidate peptides that show a high exchange yield (preferably higher than 50%, most preferred higher than 75%) are generally preferred for a generation and production of antibodies or fragments thereof, and/or T cell receptors or fragments thereof, as they show sufficient avidity to the MHC molecules and prevent dissociation of the MHC complexes.

Row | Molecule | peptide exchange yield (HLA-A*02:01) [%] | further results
1 | 287 (KIQEILTQV; listed as Homo sapiens) [compound 287] |  | donors [1]: +++ (50%-69% = +++); wells [1]: + (<20% = +)
2 | 288 (SLYKGLLSV; listed as Homo sapiens) [compound 288] |  | donors [1]: ++++ (>= 70% = ++++); wells [1]: ++ (21%-49% = ++)
3 | B1 | 20 to 50 | 
4 | B2 | 20 to 50 | 
5 | B3 | 20 to 50 | 
6 | B4 | 20 to 50 | 
7 | B5 | 20 to 50 | 
8 | B6 | 20 to 50 | 
9 | B7 | 20 to 50 | 
10 | B8 | 20 to 50 | 
11 | B9 | 20 to 50 | 
12 | B10 | 20 to 50 | 
13 | B11 | 20 to 50 | 
14 | B12 | 20 to 50 | 
15 | B13 | 20 to 50 | 
16 | B14 | 20 to 50 | 
17 | B15 | 20 to 50 | 
18 | B16 | 20 to 50 | 
19 | B17 | 20 to 50 | 
20 | B18 | 20 to 50 | 
21 | B19 | 20 to 50 | 
22 | B20 | 20 to 50 | 
23 | B21 | 20 to 50 | 

Row | Molecule | peptide exchange yield (HLA-A*02:01) [%] | further results
24 | B22 | 20 to 50 | 
25 | B23 | 20 to 50 | 
26 | B24 | 20 to 50 | 
27 | B25 | 20 to 50 | 
28 | B26 | 20 to 50 | 
29 | B27 | 20 to 50 | 
30 | B28 | 20 to 50 | 
31 | B29 | 20 to 50 | 
32 | B30 | 20 to 50 | 
33 | B31 | 20 to 50 | 
34 | B32 | 20 to 50 | 
35 | B33 | 20 to 50 | 
36 | B34 | 20 to 50 | 
37 | B35 | 20 to 50 | 
38 | B36 | 20 to 50 | 
39 | B37 | 20 to 50 | 
40 | B38 | 20 to 50 | 
41 | B39 | 20 to 50 | 
42 | B40 | 20 to 50 | 
43 | B41 | 20 to 50 | 
44 | B42 | 20 to 50 | 
45 | B43 | 20 to 50 | 
46 | B44 | 20 to 50 | 
